Measurements reported in patent US20200072853A1.

Legend:
human BNP(1-32) (human) [1] = experiment: sandwich ELISA; capture L21016; BNP(1-32) 20 pg/ml; detection mAb 0.5 ug/ml
human BNP(1-32) (human) [2] = experiment: sandwich ELISA; capture L21016; BNP(1-32) 39 pg/ml; detection mAb 0.5 ug/ml
human BNP(1-32) (human) [3] = experiment: sandwich ELISA; capture L21016; BNP(1-32) 78 pg/ml; detection mAb 0.5 ug/ml
human BNP(1-32) (human) [4] = experiment: sandwich ELISA; capture L21016; BNP(1-32) 625 pg/ml; detection mAb 0.5 ug/ml
human BNP(1-32) (human) [5] = experiment: sandwich ELISA; capture L21016; BNP(1-32) 1,250 pg/ml; detection mAb 0.5 ug/ml
human BNP(1-32) (human) [6] = experiment: sandwich ELISA; capture L21016; BNP(1-32) 2,500 pg/ml; detection mAb 0.5 ug/ml
human BNP(1-32) (human) [7] = experiment: sandwich ELISA; capture L21016; BNP(1-32) 312.5 pg/ml; detection mAb 0.5 ug/ml
human BNP(1-32) (human) [8] = experiment: sandwich ELISA; capture L21016; BNP(1-32) 5,000 pg/ml; detection mAb 0.5 ug/ml
human BNP(1-32) (human) [9] = experiment: sandwich ELISA; capture L21016; BNP(1-32) 10,000 pg/ml; detection mAb 0.5 ug/ml
human BNP(1-32) (human) [10] = experiment: sandwich ELISA; capture L21016; BNP(1-32) 156.25 pg/ml; detection mAb 0.5 ug/ml
human BNP(1-32) (human) [11] = experiment: sandwich ELISA; capture L21016; BNP(1-32) 0 pg/ml (blank); detection mAb 0.5 ug/ml
[12] = biological target: human proBNP(1-108), recombinant protein produced in E. coli (non-glycosylated) (human) (UniProt P16860); experiment: sandwich ELISA; capture hinge 76; proBNP(1-108) 20 pg/ml; detection mAb-peroxidase 0.5 ug/ml
[13] = biological target: human proBNP(1-108), recombinant protein produced in E. coli (non-glycosylated) (human) (UniProt P16860); experiment: sandwich ELISA; capture hinge 76; proBNP(1-108) 39 pg/ml; detection mAb-peroxidase 0.5 ug/ml
[14] = biological target: human proBNP(1-108), recombinant protein produced in E. coli (non-glycosylated) (human) (UniProt P16860); experiment: sandwich ELISA; capture hinge 76; proBNP(1-108) 78 pg/ml; detection mAb-peroxidase 0.5 ug/ml
[15] = biological target: human proBNP(1-108), recombinant protein produced in E. coli (non-glycosylated) (human) (UniProt P16860); experiment: sandwich ELISA; capture hinge 76; proBNP(1-108) 625 pg/ml; detection mAb-peroxidase 0.5 ug/ml
[16] = biological target: human proBNP(1-108), recombinant protein produced in E. coli (non-glycosylated) (human) (UniProt P16860); experiment: sandwich ELISA; capture hinge 76; proBNP(1-108) 1,250 pg/ml; detection mAb-peroxidase 0.5 ug/ml
[17] = biological target: human proBNP(1-108), recombinant protein produced in E. coli (non-glycosylated) (human) (UniProt P16860); experiment: sandwich ELISA; capture hinge 76; proBNP(1-108) 2,500 pg/ml; detection mAb-peroxidase 0.5 ug/ml
[18] = biological target: human proBNP(1-108), recombinant protein produced in E. coli (non-glycosylated) (human) (UniProt P16860); experiment: sandwich ELISA; capture hinge 76; proBNP(1-108) 312.5 pg/ml; detection mAb-peroxidase 0.5 ug/ml
[19] = biological target: human proBNP(1-108), recombinant protein produced in E. coli (non-glycosylated) (human) (UniProt P16860); experiment: sandwich ELISA; capture hinge 76; proBNP(1-108) 5,000 pg/ml; detection mAb-peroxidase 0.5 ug/ml
[20] = biological target: human proBNP(1-108), recombinant protein produced in E. coli (non-glycosylated) (human) (UniProt P16860); experiment: sandwich ELISA; capture hinge 76; proBNP(1-108) 10,000 pg/ml; detection mAb-peroxidase 0.5 ug/ml
[21] = biological target: human proBNP(1-108), recombinant protein produced in E. coli (non-glycosylated) (human) (UniProt P16860); experiment: sandwich ELISA; capture hinge 76; proBNP(1-108) 156.25 pg/ml; detection mAb-peroxidase 0.5 ug/ml
[22] = biological target: human proBNP(1-108), recombinant protein produced in E. coli (non-glycosylated) (human) (UniProt P16860); experiment: sandwich ELISA; capture hinge 76; proBNP(1-108) 0 pg/ml (blank); detection mAb-peroxidase 0.5 ug/ml

human BNP(1-32) (human), sequence (peptide, as listed by the source): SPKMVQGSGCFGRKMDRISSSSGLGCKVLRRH
human proBNP(1-108), recombinant protein produced in E. coli (non-glycosylated) (human), sequence (P16860 27-134): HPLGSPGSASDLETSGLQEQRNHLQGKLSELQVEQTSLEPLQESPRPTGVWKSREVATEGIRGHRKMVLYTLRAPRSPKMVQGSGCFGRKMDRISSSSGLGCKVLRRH

OD 490 nm (human BNP(1-32) (human) [1]) [OD] | OD 490 nm (human BNP(1-32) (human) [2]) [OD] | OD 490 nm (human BNP(1-32) (human) [3]) [OD] | OD 490 nm (human BNP(1-32) (human) [4]) [OD] | OD 490 nm (human BNP(1-32) (human) [5]) [OD] | OD 490 nm (human BNP(1-32) (human) [6]) [OD] | OD 490 nm (human BNP(1-32) (human) [7]) [OD] | OD 490 nm (human BNP(1-32) (human) [8]) [OD] | OD 490 nm (human BNP(1-32) (human) [9]) [OD] | OD 490 nm (human BNP(1-32) (human) [10]) [OD] | OD 490 nm (human BNP(1-32) (human) [11]) [OD] | OD [12] [OD] | OD [13] [OD] | OD [14] [OD] | OD [15] [OD] | OD [16] [OD] | OD [17] [OD] | OD [18] [OD] | OD [19] [OD] | OD [20] [OD] | Substance | further results
0.068 | 0.055 | 0.052 | 0.059 | 0.056 | 0.067 | 0.063 | 0.068 | 0.077 | 0.071 | 0.071 | 0.052 | 0.056 | 0.056 | 0.07 | 0.068 | 0.069 | 0.035 | 0.117 | 0.22 | 24C5 monoclonal antibody (HyTest, Turku, Finland) | OD [21]: 0.055 OD; OD [22]: 0.044 OD
0.034 | 0.032 | 0.055 | 0.029 | 0.031 | 0.035 | 0.027 | 0.041 | 0.048 | 0.032 | 0.022 | 0.028 | 0.028 | 0.033 | 0.024 | 0.024 | 0.031 | 0.028 | 0.041 | 0.158 | 26E2 monoclonal antibody (HyTest, Turku, Finland) | OD [21]: 0.027 OD; OD [22]: 0.024 OD
